Numbering of substitutions follows the chain as printed. Where two headings read alike, the source gives them in different places.
B1: arabinose-binding protein (protein, UniProt P02924 24-329, looked up)
L-arabinose-binding …: ENLKLGFLVKQPEEPWFQTEWKFADKAGKDLGFEVIKIAVPDGEKTLNAIDSLAASGAKGFVICTPDPKLGSAIVAKARGYDMKVIAVDDQFVNAKGKPMDTVPLVMMAATKIGERQGQELYKEMQKRGWDVKESAVMAITANELDTARRRTTGSMDALKAAGFPEKQIYQVPTKSNDIPGAFDAANSMLVQHPEVKHWLIVGMNDSTVLGGVRATEGQGFKAADIIGIGINGVDAVSELSKAQATGFYGSLLPSPDVHGYKSSEMLYNWVAKDVEPPKFTEVTDVVLITRDNFKEELEKKGLGGK
B2: Lac.R1: RBP variant designed to bind L-lactate (protein)
chain: KDTIALVVSTLNVPARVSLKDGAQKEADKLGYNLVVLDSQNNPAKELANVQDLTVRGTKILLINPTDSDAVGNAVKMANQANIPVITLSSQATKGEVVSHIASDNVLGGKIAGDYIAKKAGEGAKVIELQGIAGTSKAREMGEGFQQAVAAHKFNVLASQPADKDRIKGLNVMQNLLTAHPDVQAVFAQIDEMALGALRALQTAGKSDVMVVGFSGTPDGEKAVNDGKLAATIATLPDQIGAKGVETADKVLKGEKVQAKYPVDLKLVVKQ
B3: ribose-binding protein (protein)
chain: KDTIALVVSTLNNPFFVSLKDGAQKEADKLGYNLVVLDSQNNPAKELANVQDLTVRGTKILLINPTDSDAVGNAVKMANQANIPVITLDRQATKGEVVSHIASDNVLGGKIAGDYIAKKAGEGAKVIELQGIAGTSAARERGEGFQQAVAAHKFNVLASQPADFDRIKGLNVMQNLLTAHPDVQAVFAQNDEMALGALRALQTAGKSDVMVVGFDGTPDGEKAVNDGKLAATIAQLPDQIGAKGVETADKVLKGEKVQAKYPVDLKLVVKQ
B4: Lac.G2: GBP variant designed to bind L-lactate (protein)
chain: ADTRIGVTIKKYDMNKMSVVRKAIEQDAKAAPDVQLLMNDSQNDQSKQNDQIDVLLAKGVKALAINLVDPAAAGTVIEKARGQNVPVVFFKLEPSRKALDSYDKAYYVGTDSKESGIIQGDLIAKHWAANQGWDLNKDGQIQFVLLKGEPGKPKAEAMTTYVIKELNDKGIKTEQLQLDTAMKDTAQAKDKMDAWLSGPNANKIEVVIANNDAMAMGAVEALKAHNKSSIPVFGVAALPEALALVKSGALAGTVLSDANNQAKATFDLAKNLADGKGAADGTNWKIDNKVVRVPYVGVDKDNLAEFSKK
B5: Lac.G1 (protein)
chain: B4 chain with M14K, K16F, K152M, K154H, M158K, S256D
B6: histidine-binding protein (protein, UniProt P0AEU0 23-260, looked up)
Histidine-binding periplasmic …: AIPQNIRIGTDPTYAPFESKNSQGELVGFDIDLAKELCKRINTQCTFVENPLDALIPSLKAKKIDAIMSSLSITEKRQQEIAFTDKLYAADSRLVVAKNSDIQPTVESLKGKRVGVLQGTTQETFGNEHWAPKGIEIVSYQGQDNIYSDLTAGRIDAAFQDEVAASEGFLKQPVGKDYKFGGPSVKDEKLFGVGTGMGLRKEDNELREALNKAFAEMRADGTYEKLAKKYFDFDVYGG
B7: glutamine-binding protein (protein, UniProt P0AEQ3 23-248, looked up)
Glutamine-binding periplasmic …: ADKKLVVATDTAFVPFEFKQGDKYVGFDVDLWAAIAKELKLDYELKPMDFSGIIPALQTKNVDLALAGITITDERKKAIDFSDGYYKSGLLVMVKANNNDVKSVKDLDGKVVAVKSGTGSVDYAKANIKTKDLRQFPNIDNAYMELGTNRADAVLHDTPNILYFIKTAGNGQFKAVGDSLEAQQYGIAFPKGSDELRDKVNGALKTLRENGTYNEIYKKWFGTEPK

Columns and labels:
[1] = read-out: DHAP → GAP KM; cited from earlier work
[2] = read-out: KM (μM), second group; cited from earlier work
[3] = target: wild-type TIM (Homo sapiens, UniProt P60174); details: cited from earlier work
wild-type TIM, sequence (P60174 whole entry): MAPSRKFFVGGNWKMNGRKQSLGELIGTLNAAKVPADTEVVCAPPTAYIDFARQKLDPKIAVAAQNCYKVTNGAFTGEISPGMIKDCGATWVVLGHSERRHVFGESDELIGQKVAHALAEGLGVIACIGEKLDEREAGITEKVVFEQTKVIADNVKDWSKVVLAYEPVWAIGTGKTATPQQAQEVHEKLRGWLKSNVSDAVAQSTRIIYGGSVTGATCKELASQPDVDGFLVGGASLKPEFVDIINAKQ

[4] = target: NovoTim1.0; assay type: biochemical
[5] = assay type: physicochemical; details: pH 7
[6] = assay type: binding; details: read-out: K1 (μM) D-lac
[7] = assay type: binding; details: read-out: K1 (μM) L-lac
[8] = assay type: binding; details: read-out: K1 (μM) Pyr
[9] = read-out: affinities of wild-type receptors for cognate ligands; cited from earlier work

Molecule | Tm [5] | Kd [6] | Kd [7] | Kd [8] | also measured
triose phosphate isomerase [wtTIM] |  |  |  |  | Km [1]: 1.6 mM; Km [2]: 390 µM
O=C(O)COP(=O)(O)O [phosphoglycolate] |  |  |  |  | Ki [3]: 4 µM; Ki [4]: 130 µM
B1 | 54 °C |  |  |  | 
B2 |  | 40 µM | 7.4 µM | 40 µM | 
B3 | 58 °C |  |  |  | Kd [9]: 200 nM
B4 | 50 °C | 55 µM | 2.1 µM | 115 µM | 
B5 |  | 205 µM | 2.8 µM | 255 µM | 
B6 | 58 °C |  |  |  | 
B7 | 62 °C |  |  |  | 

— patent publication US20040229290A1 (priority 2003, published 2004)
